Data as given in article doi:10.1101/2023.09.23.559074, “Direct ionic stress sensing and mitigation by the transcription factor NFAT5” (bioRxiv, 2023).

B1: GFP-PLD (superfolder GFP fused to the prion-like domain of NFAT5, a.a. 999-1454) (domain or fragment, human, UniProt O94916 999-1454, looked up)
chain: QIQNSVFQTMVQMQHSGDNQPQVNLFSSTKSMMSVQNSGTQQQGNGLFQQGNEMMSLQSGNFLQQSSHSQAQLFHPQNPIADAQNLSQETQGSLFHSPNPIVHSQTSTTSSEQMQPPMFHSQSTIAVLQGSSVPQDQQSTNIFLSQSPMNNLQTNTVAQEAFFAAPNSISPLQSTSNSEQQAAFQQQAPISHIQTPMLSQEQAQPPQQGLFQPQVALGSLPPNPMPQSQQGTMFQSQHSIVAMQSNSPSQEQQQQQQQQQQQQQQQQQSILFSNQNTMATMASPKQPPPNMIFNPNQNPMANQEQQNQSIFHQQSNMAPMNQEQQPMQFQSQSTVSSLQNPGPTQSESSQTPLFHSSPQIQLVQGSPSSQEQQVTLFLSPASMSALQTSINQQDMQQSPLYSPQNNMPGIQGATSSPQPQATLFHNTAGGTMNQLQNSPGSSQQTSGMFLFGIQNN
notes: NFAT5 (TonEBP), human, 1531 a.a. protein; prion-like domain (PLD), a.a; 999-1454; The methods for the bacterial construct say only 'NFAT5 PLD'; also called GFP-NFAT5 PLD; not shown: sfGFP, N-terminal, kept
B2: untagged NFAT5 PLD (PLD protein lacking the GFP tag) (domain or fragment, human, UniProt O94916 999-1454, looked up)
chain: B1 chain
notes: NFAT5 (TonEBP), human, 1531 a.a. protein; prion-like domain (PLD), a.a; 999-1454; source: E. coli BL21 (DE3) pLysS, purified from inclusion bodies (8 M urea extraction, Superdex 200)
B3: GFP-CTD (superfolder GFP fused to the C-terminal domain of NFAT5, a.a. 544-1531) (domain or fragment, human, UniProt O94916 544-1531, looked up)
chain: DPAAAGALNVNVKKEISSPARPCSFEEAMKAMKTTGCNLDKVNIIPNALMTPLIPSSMIKSEDVTPMEVTAEKRSSTIFKTTKSVGSTQQTLENISNIAGNGSFSSPSSSHLPSENEKQQQIQPKAYNPETLTTIQTQDISQPGTFPAVSASSQLPNSDALLQQATQFQTRETQSREILQSDGTVVNLSQLTEASQQQQQSPLQEQAQTLQQQISSNIFPSPNSVSQLQNTIQQLQAGSFTGSTASGSSGSVDLVQQVLEAQQQLSSVLFSAPDGNENVQEQLSADIFQQVSQIQSGVSPGMFSSTEPTVHTRPDNLLPGRAESVHPQSENTLSNQQQQQQQQQQVMESSAAMVMEMQQSICQAAAQIQSELFPSTASANGNLQQSPVYQQTSHMMSALSTNEDMQMQCELFSSPPAVSGNETSTTTTQQVATPGTTMFQTSSSGDGEETGTQAKQIQNSVFQTMVQMQHSGDNQPQVNLFSSTKSMMSVQNSGTQQQGNGLFQQGNEMMSLQSGNFLQQSSHSQAQLFHPQNPIADAQNLSQETQGSLFHSPNPIVHSQTSTTSSEQMQPPMFHSQSTIAVLQGSSVPQDQQSTNIFLSQSPMNNLQTNTVAQEAFFAAPNSISPLQSTSNSEQQAAFQQQAPISHIQTPMLSQEQAQPPQQGLFQPQVALGSLPPNPMPQSQQGTMFQSQHSIVAMQSNSPSQEQQQQQQQQQQQQQQQQQSILFSNQNTMATMASPKQPPPNMIFNPNQNPMANQEQQNQSIFHQQSNMAPMNQEQQPMQFQSQSTVSSLQNPGPTQSESSQTPLFHSSPQIQLVQGSPSSQEQQVTLFLSPASMSALQTSINQQDMQQSPLYSPQNNMPGIQGATSSPQPQATLFHNTAGGTMNQLQNSPGSSQQTSGMFLFGIQNNCSQLLTSGPATLPDQLMAISQPGQPQNEGQPPVTTLLSQQMPENSPLASSINTNQNIEKIDLLVSLQNQGNNLTGSF
notes: NFAT5 (TonEBP), human, 1531 a.a. protein; C-terminal domain (CTD), a.a; 544-1531; The methods for the bacterial construct (pET-28a) say only 'NFAT5 CTD'; also called GFP-NFAT5 CTD; NFAT5 GFP-CTD; not shown: sfGFP, N-terminal, kept
B4: untagged NFAT5 CTD (CTD protein lacking the GFP tag) (domain or fragment, human, UniProt O94916 544-1531, looked up)
chain: B3 chain
notes: NFAT5 (TonEBP), human, 1531 a.a. protein; C-terminal domain (CTD), a.a; 544-1531; source: E. coli BL21 (DE3) pLysS, purified from inclusion bodies (8 M urea extraction, Superdex 200)

Molecular target: the molecule itself
Assay: in vitro phase separation (droplet) assay, fluorescence or brightfield microscopy; purified protein in droplet buffer (20 mM Na-HEPES pH 7.4, 1 mM TCEP) with 5% dextran, NaCl (or other salts) added to the indicated osmolarity; 10 min at room temperature; self-association into droplets

Binding result, binds:
B1
B2
B3
B4
